{"source": "patent US20150291667A1", "proteins": {"B1": {"name": "CdtB/DNase I hybrid protein (protein)", "chain": "NLSDFKVATWNLQGSSAVNESKWNINVRQLLSGEQGADILMVQEAGSLPSSAVRTSRVIQHGGTPIEEYTWNLGTRSRPNMVYIYYSRLDVGANRVNLAIVSRRQADEAFIVHSDSSVLQSRPAVGIRIGTDVFFTVHAAPGDAVAEIDALYDVYLDVQEKWGLEDVMLMGDFNAGCSYVRPSQWSSIRLWTSPTFQWLIPDSADTTATPTHCAYDRIVVAGMLLRGAVVPDSALPFNFQAANGLSDQLAQAISDHYPVEVMLKHHHHHHHMLEDPAANKAQKK"}}, "biological_target": "T1, CdtA-CdtC heterodimer", "T1 chain 1": "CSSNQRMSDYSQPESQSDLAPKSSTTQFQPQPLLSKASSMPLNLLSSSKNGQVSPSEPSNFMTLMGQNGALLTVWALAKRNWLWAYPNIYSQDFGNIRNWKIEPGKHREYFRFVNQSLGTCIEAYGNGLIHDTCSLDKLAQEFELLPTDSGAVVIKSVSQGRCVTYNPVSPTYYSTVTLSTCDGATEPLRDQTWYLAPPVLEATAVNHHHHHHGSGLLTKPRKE", "T1 chain 2": "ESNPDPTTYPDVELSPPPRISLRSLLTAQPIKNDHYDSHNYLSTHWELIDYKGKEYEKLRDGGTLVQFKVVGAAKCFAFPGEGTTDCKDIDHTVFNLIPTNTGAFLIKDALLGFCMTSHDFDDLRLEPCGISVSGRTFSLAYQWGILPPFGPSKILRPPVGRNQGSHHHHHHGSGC"}
{"protein": "B1", "values": [{"measurement": "DNA nicking activity of reconstituted heterotrimer preparations (subunit protection)", "value": "reconstituted heterotrimer preparations containing the CdtB/DNase I hybrid protein failed to convert supercoiled DNA to linear and relaxed forms"}]}
